Where no end group is shown, it is not given here.
How the values were obtained:
[1] = target: T1, sPLA2-IIA catalytic activity (Homo sapiens, UniProt P14555); details: clinical trials; cited from earlier work
T1 sequence (P14555 21-144): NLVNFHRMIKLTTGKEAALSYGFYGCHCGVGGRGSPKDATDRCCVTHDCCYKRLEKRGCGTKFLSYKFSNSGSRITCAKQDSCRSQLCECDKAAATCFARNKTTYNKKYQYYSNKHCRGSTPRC

U937 cells = experiment: sPLA2-IIA-induced chemotaxis in modified Boyden chambers; type: cell-based, human; details: 1 μg/ml sPLA2-IIA, 20 μg/ml peptide, 5 h
Procedure: FIG. 11. S2-β1 peptide suppresses sPLA2-IIA-induced chemotaxis. Chemotaxis was measured in modified Boyden chambers. 1 μg/ml sPLA2-IIA and 20 μg/ml S2-β1 peptide or control peptides in 600 μl RPMI 1640 medium were placed in lower chamber, and U937 cells (2×10^5 cells in 100 μl RPMI 1640 medium) were placed in the upper chamber. After 5 hours of incubation at 37° C., cells in the lower chamber was counted.
Chemotaxis was measured in modified Boyden Chambers (Transwell). One μg/ml sPLA2-IIA and 20 μg/ml S2-β1 peptide or control peptides in 600 μl RPMI 1640 medium were placed in the lower chamber, and U937 cells (2×10^5 cells in 100 μl RPMI1640 medium) were placed in the upper chamber. After 5 h incubation at 37° C., cells in the lower chamber were counted.

sPLA2-IIA = target: T2, sPLA2-IIA (Homo sapiens, UniProt P14555); experiment: ELISA-type binding of S2 peptides to immobilized sPLA2-IIA; details: GST-tagged peptides; sPLA2-IIA 20 μg/ml coating
T2 construct: made in house
T2 sequence (P14555 21-144): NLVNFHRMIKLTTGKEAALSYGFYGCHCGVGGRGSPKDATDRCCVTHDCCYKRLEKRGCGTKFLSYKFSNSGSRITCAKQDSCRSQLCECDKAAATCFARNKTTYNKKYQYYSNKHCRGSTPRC
Procedure: ELISA-type binding assays were performed as described previously (18). Briefly, wells of 96-well Immulon 2 microtiter plates (Dynatech Laboratories, Chantilly, Va.) were coated with 100 μl 0.1 M NaHCO3 containing sPLA2-IIA, γC399tr, FN-H120 for 2 h at 37° C. Remaining protein binding sites were blocked by incubating with PBS/0.1% BSA for 30 min at room temperature. After washing with PBS, S2 peptides were added to the wells and incubated in PBS for 2 h at room temperature. After unbound S2 peptides were removed by rinsing the wells with PBS, bound S2 peptides (GST-tagged) were measured using HRP-conjugated anti-GST antibody and peroxidase substrates.

FKN-CD = target: T3, FKN-CD (Homo sapiens, UniProt P78423); details: cited from earlier work
T3 sequence (P78423 25-100 limits assumed): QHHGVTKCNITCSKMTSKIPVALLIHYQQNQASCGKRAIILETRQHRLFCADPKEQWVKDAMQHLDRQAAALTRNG

[2] = test system: integrin activation by FKN-CD; details: cited from earlier work
[3] = test system: other ligands (e.g., SDF-1, IGF-1); experiment: Additional testing: binding of linear and cyclic site 2 peptides to other ligands
Excerpt: Data are shown in FIG. 12 comparing cyclic site 2 peptides (β1 and β3) binding to sPLA2-IIA or FKN.

[4] = target: T4, integrin αvβ3 on U937, αvβ3-K562 and β3-CHO cells (Homo sapiens, UniProt P05106+P06756); experiment: Flow cytometry: binding of FITC-labeled ADAM15 disintegrin domain to αvβ3; type: cell-based; details: sPLA2-IIA 20 μg/ml
T4 construct: expressed in transfected cells; host or cells: U937 (endogenous αvβ3); αvβ3-K562 (transfected human αvβ3); β3-CHO (human β3 with hamster αv)
Procedure: (§1) The cells were cultured to nearly confluent in RPMI 1640/10% FCS (K562 and U937) or DMEM/10% FCS (CHO cells). The cells were resuspended with RPMI 1640/0.02% BSA or DMEM/0.02% BSA and incubated for 30 min at room temperature to block remaining protein binding sites. The cells were then incubated with WT sPLA2-IIA or mutants for 5 min at room temperature and then incubated with FITC-labeled integrin ligands (γC399tr, FN-H120, FN8-11, and ADAM15) for 15 min at room temperature. For blocking experiments, sPLA-IIA was preincubated with S2-β1 peptide for 30 min at room temperature. The cells were washed with PBS/0.02% BSA and analyzed by FACSCalibur (Becton Dickinson, Mountain View, Calif.). For inhibition studies using Cmpd21, sPLA2-IIA was preincubated with Cmpd21 for 30 minutes at room temperature.

[5] = test system: integrin α5β1 on U937, K562 and CHO cells; experiment: Flow cytometry: binding of FITC-labeled FN8-11 to α5β1 on the cell surface; type: cell-based, human, Chinese hamster; details: sPLA2-IIA WT or mutants
Procedure: as §1

[6] = test system: integrins αvβ3, α4β1, α5β1; experiment: sPLA2-IIA-induced integrin activation (present study overall)
Procedure: ELISA-type binding assays were performed as described previously (18). Briefly, wells of 96-well Immulon 2 microtiter plates (Dynatech Laboratories, Chantilly, Va.) were coated with 100 μl 0.1 M NaHCO3 containing γC399tr or ADAM15 for 2 h at 37° C. Remaining protein binding sites were blocked by incubating with PBS/0.1% BSA for 30 min at room temperature. After washing with PBS, soluble recombinant αvβ3 (5 μg/ml) in the presence or absence of sPLA2-IIA (WT or mutants) was added to the wells and incubated in HEPES-Tyrodes buffer (10 mM HEPES, 150 mM NaCl, 12 mM NaHCO3, 0.4 mM NaH2PO4, 2.5 mM KCl, 0.1% glucose, 0.1% BSA) with 1 mM CaCl2 for 2 h at room temperature. After unbound αvβ3 was removed by rinsing the wells with binding buffer, bound αvβ3 was measured using anti-integrin β3 mAb (AV-10) followed by HRP-conjugated goat anti-mouse IgG and peroxidase substrates.
The cells were cultured to nearly confluent in RPMI 1640/10% FCS (K562 and U937) or DMEM/10% FCS (CHO cells). The cells were resuspended with RPMI 1640/0.02% BSA or DMEM/0.02% BSA and incubated for 30 min at room temperature to block remaining protein binding sites. […] The cells were washed with PBS/0.02% BSA and analyzed by FACSCalibur (Becton Dickinson, Mountain View, Calif.). […]

[7] = target: T5, β1 integrins on U937, K562 and α4-K562 cells (Homo sapiens, UniProt P05556); experiment: Reactivity of β1 integrins to activation-dependent antibodies HUTS4 and HUTS21; type: cell-based; details: U937, K562, α4-K562 cells in RPMI1640; preliminary experiments
T5 construct: endogenous in cells; host or cells: U937, K562, α4-K562
Excerpt: It is unclear whether sPLA2-IIA-induced integrin activation requires global conformational changes in integrins. In current models of integrin activation, activation of β1 integrins induces a swing-out movement of the hybrid domain and exposes epitopes recognized by activation-dependent antibodies (anti-human β1 HUTS4 and HUTS21)(45). The HUTS4 and HUTS21 epitopes are located in the hybrid domain of […] (46,47). […] It is possible that the binding of sPLA2-IIA to site 2 induces only local conformational changes within the headpiece of integrins. […] It was shown that sPLA2-IIA (the current study) FKN-CD (19) actually bind to site 2 and the binding of sPLA2-IIA and FKN to site 2 is required for integrin activation using the peptides from site 2. It is likely that integrins that are activated by sPLA2-IIA and FKN-CD through site 2 have conformations similar to the open-headpiece αvβ3 that has no global conformational changes compared to the closed-headpiece form. The open- and closed-headpiece conformations of αvβ3 may really reflect the fact that integrins can be activated without global conformational changes through allosteric mechanism.

[8] = test system: integrin α4β1 on U937, α4-K562 and α4-CHO cells; experiment: Flow cytometry: binding of FITC-labeled fibronectin H120 fragment to α4β1 on the cell surface; type: cell-based, human; details: for binding of H120 to α4β1 (α4β1 activation): U937, α4-K562, α4-CHO cells, sPLA2-IIA WT or mutants
Procedure: as §1

[9] = test system: integrin αvβ3 on U937, αvβ3-K562 and β3-CHO cells; experiment: Flow cytometry: binding of FITC-labeled γC399tr to αvβ3 on the cell surface; type: cell-based, human
Procedure: as §1

[10] = test system: integrin ligands used in this study; experiment: ELISA: binding of sPLA2-IIA to the integrin ligands used; details: ligands coated at 2 μM
Procedure: FIG. 10. Lack of binding of sPLA2-IIA to integrin ligands used in the present study. Wells of 96-well microtiter plates were coated with ligands (2 μM coating concentration) and the remaining protein-binding sites were blocked with BSA. The wells were then incubated with sPLA2-IIA ([…] in PBS) for 2 hours at room temperature, and bound sPLA2-IIA was determined using HRP-conjugated anti-6His antibody. sPLA2-IIA (20 ng/ml coating concentration, 1% of input sPLA2-IIA) was used as a positive control. Data are shown as means+/−SEM of triplicate experiments.

Listera = details: cited from earlier work

T5 sequence (P05556 21-798): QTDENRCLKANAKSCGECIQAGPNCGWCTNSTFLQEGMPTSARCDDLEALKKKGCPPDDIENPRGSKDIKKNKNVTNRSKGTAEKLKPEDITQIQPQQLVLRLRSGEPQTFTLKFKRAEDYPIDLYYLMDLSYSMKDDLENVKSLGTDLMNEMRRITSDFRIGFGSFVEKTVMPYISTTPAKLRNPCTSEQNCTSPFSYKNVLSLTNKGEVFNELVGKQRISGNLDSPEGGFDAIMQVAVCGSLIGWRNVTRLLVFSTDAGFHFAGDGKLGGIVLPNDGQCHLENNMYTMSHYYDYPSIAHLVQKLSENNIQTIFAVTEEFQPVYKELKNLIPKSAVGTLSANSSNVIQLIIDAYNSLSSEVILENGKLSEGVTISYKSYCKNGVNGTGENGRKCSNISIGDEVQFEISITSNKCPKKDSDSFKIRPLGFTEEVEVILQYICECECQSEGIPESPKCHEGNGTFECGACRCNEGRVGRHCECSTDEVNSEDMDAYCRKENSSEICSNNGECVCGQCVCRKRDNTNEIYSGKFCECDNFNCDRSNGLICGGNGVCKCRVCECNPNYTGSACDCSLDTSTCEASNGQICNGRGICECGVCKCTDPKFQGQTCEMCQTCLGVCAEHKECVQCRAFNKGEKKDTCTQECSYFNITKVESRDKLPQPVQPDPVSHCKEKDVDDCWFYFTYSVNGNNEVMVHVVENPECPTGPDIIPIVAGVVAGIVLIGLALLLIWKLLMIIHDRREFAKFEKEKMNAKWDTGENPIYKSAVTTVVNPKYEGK
T5 sequence (P08648 42-894 partner limits assumed): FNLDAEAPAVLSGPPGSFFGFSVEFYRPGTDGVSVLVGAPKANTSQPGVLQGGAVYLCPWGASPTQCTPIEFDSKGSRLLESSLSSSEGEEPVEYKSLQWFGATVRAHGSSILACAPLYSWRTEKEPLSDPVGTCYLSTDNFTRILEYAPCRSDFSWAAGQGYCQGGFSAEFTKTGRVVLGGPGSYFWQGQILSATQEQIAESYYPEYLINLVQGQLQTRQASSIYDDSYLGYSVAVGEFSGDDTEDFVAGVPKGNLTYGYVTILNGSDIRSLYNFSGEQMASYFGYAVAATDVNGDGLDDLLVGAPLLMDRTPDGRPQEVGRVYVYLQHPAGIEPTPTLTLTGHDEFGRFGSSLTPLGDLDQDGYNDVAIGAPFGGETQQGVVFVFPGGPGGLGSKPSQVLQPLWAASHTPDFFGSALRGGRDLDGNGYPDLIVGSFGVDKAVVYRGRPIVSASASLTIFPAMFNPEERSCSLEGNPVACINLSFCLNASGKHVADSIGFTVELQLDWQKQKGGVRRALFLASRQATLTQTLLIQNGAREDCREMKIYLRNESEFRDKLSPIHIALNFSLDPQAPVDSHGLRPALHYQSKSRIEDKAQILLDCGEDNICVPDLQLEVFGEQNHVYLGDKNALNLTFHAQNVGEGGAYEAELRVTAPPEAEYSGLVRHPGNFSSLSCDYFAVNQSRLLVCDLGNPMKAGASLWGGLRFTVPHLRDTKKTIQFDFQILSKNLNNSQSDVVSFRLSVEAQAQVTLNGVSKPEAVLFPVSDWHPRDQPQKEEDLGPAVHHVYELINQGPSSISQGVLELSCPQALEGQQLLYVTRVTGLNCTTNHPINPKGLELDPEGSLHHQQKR
T5 sequence (P08648 895-1049 partner limits assumed): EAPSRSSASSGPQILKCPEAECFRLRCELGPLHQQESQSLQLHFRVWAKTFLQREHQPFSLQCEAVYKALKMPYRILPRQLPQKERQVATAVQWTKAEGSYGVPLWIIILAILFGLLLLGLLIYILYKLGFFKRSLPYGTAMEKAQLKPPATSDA

CCc1c(C(=O)C(N)=O)c2c(OCC(=O)[O-])cccc2n1Cc1ccccc1.[Na+] [S-5920/LY315920Na]
therapeutic effect in rheumatoid arthritis and asthma [1]: failed to demonstrate a significant therapeutic effect

S2-β1 peptide: site 2 peptide from integrin β1 (β1 275-294, SEQ ID NO:1), made as GST fusion protein (LPNDGQCHLENNMYTMSHYY; also: made as GST fusion protein)
chemotaxis induced by sPLA2-IIA (U937 cells): suppressed chemotaxis induced by sPLA2-IIA
binding of site 2 peptide to immobilized sPLA2-IIA (sPLA2-IIA): bound better to sPLA2-IIA in a concentration-dependent manner than S2-β3 peptide

QPNDGQSHVGSDNHYSASTTM [S2-β3 peptide, site 2 peptide, residues 267-287 of β3, C273 changed to S, GST fusion protein]
binding to FKN-CD (FKN-CD): directly binds to FKN-CD
FKN-CD-induced integrin activation [2]: suppresses FKN-CD-induced integrin activation

VHDSHYSGQGAMSDNTNSPQT [Compound S2-β3scr, scrambled site 2 peptide, GST fusion protein, control, reference compound]
binding of site 2 peptide to immobilized sPLA2-IIA (sPLA2-IIA): did not bind to sPLA2-IIA
FKN-CD-induced integrin activation [2]: does not

linear β1 peptide: linear peptide comprising SEQ ID NO:1, GST fusion (LPNDGQCHLENNMYTMSHYY; also: GST fusion)
binding to other ligands (e.g., SDF-1, IGF-1) [3]: did not bind to other ligands

CCc1c(C(=O)C(N)=O)c2c(OCC(=O)OC)cccc2n1Cc1ccccc1 [S-3013/LY333013]
therapeutic effect in rheumatoid arthritis and asthma [1]: failed to demonstrate a significant therapeutic effect

B1: WT sPLA2-IIA: recombinant human secreted phospholipase A2 type IIA, wild type (protein)
chain: NLVNFHRMIKLTTGKEAALSYGFYGCHCGVGGRGSPKDATDRCCVTHDCCYKRLEKRGCGTKFLSYKFSNSGSRITCAKQDSCRSQLCECDKAAATCFARNKTTYNKKYQYYSNKHCRGSTPRC
binding of FITC-labeled ADAM15 disintegrin domain to αvβ3 [4]: markedly enhanced
binding of FITC-labeled FN8-11 to α5β1 (α5β1 activation) [5]: markedly increased the binding of FITC-labeled FN8-11
sPLA2-IIA concentration required to detect integrin activation [6]: > 5 µg/mL
reactivity of β1 integrins to HUTS4 and HUTS21 [7]: did not change reactivity of β1 integrins to HUTS4 and HUTS21
binding of H120 to α4β1 (α4β1 activation) [8]: markedly increased the binding of H120 to α4β1
sPLA2-IIA concentration of maximum H120 binding ([8]; α4-CHO cells, sPLA2-IIA up to 500 μg/ml, binding reduced at higher concentrations): 20 µg/mL
activation of αvβ3 on the cell surface (FITC-γC399tr binding) [9]: activated αvβ3
direct interaction of sPLA2-IIA with integrin ligands [10]: does not directly interact with the integrin ligands used in this study
concentration that kills Listera (Listera): < 0.1 nM

B2: G29S/D48K: M-type receptor-binding defective mutant of sPLA2-IIA (protein)
chain: NLVNFHRMIKLTTGKEAALSYGFYGCHCSVGGRGSPKDATDRCCVTHKCCYKRLEKRGCGTKFLSYKFSNSGSRITCAKQDSCRSQLCECDKAAATCFARNKTTYNKKYQYYSNKHCRGSTPRC
modifications: left off: small tags and cut ends
binding of FITC-labeled FN8-11 to α5β1 (α5β1 activation) [5]: induced α5β1 activation
binding of H120 to α4β1 (α4β1 activation) [8]: induced α4β1 activation

B3: R74E/R100E: integrin-binding defective mutant of sPLA2-IIA (protein)
chain: NLVNFHRMIKLTTGKEAALSYGFYGCHCGVGGRGSPKDATDRCCVTHDCCYKRLEKRGCGTKFLSYKFSNSGSEITCAKQDSCRSQLCECDKAAATCFAENKTTYNKKYQYYSNKHCRGSTPRC
modifications: left off: small tags and cut ends
binding of FITC-labeled FN8-11 to α5β1 (α5β1 activation) [5]: did not

Reference: patent US10591471B2, “Suppression of SPLA2-integrin binding for treating an inflammatory condition or suppressing cell proliferation” (THE REGENTS OF THE UNIVERSITY OF CALIFORNIA, priority 2015, dated 2020)
